Data taken from the DeepSol protein solubility set.

Test: soluble on expression in E. coli; label from the status in PepcDB or PDB records

Sequence: MTRSVSHPPYADPFAHPPETSPQELTAQLTPGARFQDVRFENYRPNPEFPSQAQARDQLAEFVRQAGQKASGGGFWPFKRRAPEGRGFYLDGGFGVGKTHLLASAYHAAKGQSGGSGGDVAFMSFQDLMYLIGALGMPQAIETFRNYKLLLIDEFELDDPGNTHMANTFLGGLMPSGVSVVATSNTEPGALGAGRFNAEDFQRQIQGIADRFGPHRIDGPDYRQRGTEPAQPLSEAEFAAWLARQNPQTTALMTHAELNRALLSVHPSRFARVLEQVSGVAVTNLEPMPEQGEALRFVHFVDKVYDLGLSAAFTGVPLNALFDDIYRNGGYAKKYSRALSRLSEMLREARGLEHHHHHH
- soluble on expression in E. coli: not soluble

Sequence: MLTVKQIEAAKPKEKPYRLLDGNGLYLYVPVSGKKVWQLRYKIDGKEKILTVGKYPLMTLQEARDKAWTARKDISVGIDPVKAKKASSNNNSFSAIYKEWYEHKKQVWSVGYATELAKMFDDDILPIIGGLEIQDIEPMQLLEVIRRFEDRGAMERANKARRRCGEVFRYAIVTGRAKYNPAPDLADAMKGYRKKNFPFLPADQIPAFNKALATFSGSIVSLIATKVLRYTALRTKELRSMLWKNVDFENRIITIDASVMKGRKIHVVPMSDQVVELLTTLSSITKPVSEFVFAGRNDKKKPICENAVLLVIKQIGYEGLESGHGFRHEFSTIMNEHEWPADAIEVQLAHANGGSVRGIYNHAQYLDKRREMMQWWADWLDEKVE
- soluble on expression in E. coli: soluble

Sequence: DDEEDEGSTIARHFHELWDMANKQDVLELILEQDIQVEEPAIFSKAIINFKADLAKKTLGPRGREVLNRLMPKVFDAVFAHPDAQFGLPRVLHLLHNICTRTTYLELLDEHPAALVQLVRLCTASPMISEQLSRYPILLDELIDPQQLYNPIPLDSYRTELRDFLARIPEDDMEQQMEALRQFKQICILRIAAADIAGVLPVMKVSDHLTYLAEAIVEAVVSQAWLQVSEKYGEPTHVKDREGKGFAVIGYGKVGGWELGYNSDLDIVFMHDCPVNVYTDGKKEIDGRQFYLRLAQRIIHIFSTRTASGILYEVDTRLRPSGASGLLVSPTDAFDDYQHQDAWTWEHQALVRARMIYGDEPLAIAFHNTRHDVLCKPRDEQTLKKEVVEMREKMRDHLGGKKSGRFMIKQDVGGITDIEFLAQYLVLNYSHEKPKLTRWCDNVRIYETLIAQGVMEEDQAMQLIRAYTAMRNEIHHRNLLNLDADVVEDKFVAEREWVKQAWNQWFA
- soluble on expression in E. coli: soluble

Sequence: MGSDKIHHHHHHMAATFKMVGVIRFSLLTPTFNADRYPDLEAAAAAIFAPDRMALRLHLFETLCLPSLVRQSDAAFHLVVATSDRLPAVILQHLQALLAPHDHMQLIQFAPENHYQILKEAYRAVPQQGESHRILFRLDDDDALDRHYVARCKRLAAGLVPLQTEAVSPIALAFNRGYYLIREEGQPPVVMDSCERAPLSAGTALVQPIAARGNPYRYNHRKFAQHYTLYSDISVPSFVRTVHGDNHSTPAMMGLTARQSDAEMDADLQRHFDLSLSDLKAI
- soluble on expression in E. coli: not soluble

Sequence: MGLNIGDLLGSTPAKDQGCSRTCESQFCTIAPLLRYGKYCGILYSGCPGERPCDALDACCMVHDHCVDTHNDDYLNTMCNENLLSCIDRVSGATFPGNKCNVGQTASVIRGVIETAVFAGKILHKRDDGQ
- soluble on expression in E. coli: soluble

Sequence: MNQVTTYLWETHLPGGSHWSGVVRRGTTLRLTDVSGGANAAVLFYNLEEKLERYNMADTLKTQHTFCLTKGHACHSDMGRIFCCITEDTAGWHDTVCGLSDAELIQQKYGTGRYQELRNDMYRNGLDGMLVELGKWGLGRRDVVSNINFFSKVTANSVGELQFHVSHSKAGDHVDLAFAMDTLVVLSAAPHPLDPAATYRPGAVNLAVFPSTPAVTGACAHIAENARGLENTRRLYAYGGVKLEHHHHHH
- soluble on expression in E. coli: soluble

Sequence: MKAKREALISLFHAIKEEKVDSDIIDLLLLINSIKGIYTTSSCSGRIGILEEPSLGAKPLSRWLIKVHRPMSFEEARDALKRAREGLIFLKSQPPIFHVVAETIENAKLVHEIGLASGFKYTTFKAISSRFLVEINGTEYLTVPLGKDGRIIASDEYLKFAISIGNKMLERGKSKLPRLRDNFEKIKKKLGEDPLFIQLKREILEI
- soluble on expression in E. coli: soluble

Sequence: MAHHHHHHMADRGDARVVHVFVDDLSAVLAEDVHEWLRIIGDIDELKMRYDASRQRSFYWVRFHQSSAARLAVDHLDGERLKNHAIEIHSNVFKKQTAAVATLEGAAGGVQEEKTKLEMNPNLPKNHLMPRDLQMDELLVRAIPEMLETSEQAAEGGELLQRLLELQESYCRAQESLERTTEGIRETDGELTALLRGETTAATDVSGPSSEGFVQGNTPLASARIRNAVPVPLSTCDPAGLLSKLTRHVGPVADYAFSFASNGGSFATVVELFHPDDADFALALLTGRRMVSKSTEKHADAEDALAALVGFGWEAEASVAPLTPPSVPQASFAAHNRVATILRSCRSVA
- soluble on expression in E. coli: not soluble

Sequence: MATPSTGANNSIPAVRNQVEVQVGLVGDAQVGKTSLMVKYVQNIYDKEYTQTLGVNFLKRKVSIRSTDIIFSIMDLGGQREFINMLPIATVGSSVIIFLFDLTRPETLSSIKEWYRQAYGLNDSAIPILVGTKYDLLIDLDPEYQEQISRTSMKYAQVMNAPLIFCSTAKSINIQKIFKIALAKIFNLTLTIPEINEIGDPLLIYKHLGGQQHRHHNKSQDRKSHNIRKPSSSPSSKAPSPGVNT
- soluble on expression in E. coli: soluble

Sequence: MATPAFVKRITRSDAVLSLGVNFSKIYFKFVMWTGRYDRQAVPIPEPYILAMWHGRLIMAPMLQTKSKPLVALISGHRDGKIISRVGAAFGIQTAVGSSSKGGMRAAREMMRLGKSGHSLFVTPDGPRGPRMRINSEGVLDMARLTGLPILPVSVSLSRHKLLRSWDRLMLPGLFAKVAIRFGEPITVEAGSPTAEMAERLQAALTAAQNETDRIVGLQPVETALEHHHHHH
- soluble on expression in E. coli: soluble

Sequence: MAHHHHHHMLPILLSTLEKDESATLRERAGMALELLVREAQTQRLLLGGGSSEDAPLSTLAGKQTAPTPHLAAILASLRDESDEVVVAALRVVLACHMAHNAFSVTAALVQGGLIPVLIDLIQSTNTMTQMVACCATRQLFQVKEAHVELLKLGIVATLTKAIIKAEAVALVAEAAEVASLIAEYAQGRRDAVACGTLASLLPHLHNANLTLRVAVYSAAAQITVLEAAKVQAMEVGYPEQLVGELAREDERDVLMHMLRLIYNLAEWPTARVTLRECLPRIAELLQIAEGDEGVMFALSQADRILKKKVFPV
- soluble on expression in E. coli: not soluble

Sequence: PVLFLALPALAQERKKVGVVLSGGGAKGVAHIQALKVIEEAGIPIDYIVGTSMGSIIGGLYSIGYTPQQLDSMVRKQDWMFLLSDRVKRSAMSLNEREKSEKYVFSFPFTKSPKDAVSGGIIKGQNLANLFTELTVGYHDSVDFNKLPIPFACVSQNIVNGEQIVFHNGILATAMRASMAIPGVFTPVRKDSMILIDGGMINNYPVDVARSMGADIIIGVDVQNNLKGID
- soluble on expression in E. coli: not soluble

Sequence: MSLNDGRLEIFQEGKPGRRIDEDQVFAAVLDALTKPAEQRTVTVAFREIPPPITAANLDQLGITTLIGVGRSDFTGSAAYRVTNIQAGMRLLHGVLIAPGEEFSFNQTIGRIDRSNGFVEGYAIIQNRTQLEWGGGICQDSTTMFRAAFWAGLPITERWGHSFYISWYDRYAFGPYGDGPGMDATIFTGGPDLKFLNDTGGWLLIQTLVDTHRHLAEVRLYGPDTGRKVLLEGPIITNRTEGHHHHHH
- soluble on expression in E. coli: not soluble

Sequence: MDRPVRVLFVCLGNICRSPMAEGIFRKLLKERGLEDRFEVDSAGTGAWHVGEPMDPRARRVLEEEGAYFPHVARRLTREDVLAYDHILVMDRENLEEVLRRFPEARGKVRLVLEELGGGEVQDPYYGDLEDFRKVYWTLEAALQAFLDRHGSPSPAAEGRA
- soluble on expression in E. coli: soluble

Sequence: MAFYNSIPLIGKHLKSESRAKKYTSEEFKRLEREYRDHIGLPENSSFSSDAFDKLVSSRVDDFRAFPKTNLPGGLLFHDKLKEANTTEGDNIRDVLSKTVLAPTEKFKTAQKNFTESTSTFKELTKLIPSKFRAQDLVGTMKELTDDARKAIIEQQAHEIQMLKEKLDPQKEGQAGNYVSDFKKALGLKDNDEVKKVTEGLIKELEETHKKQLGEFDKSTSDSLNQLHKASASESSEYLFLANLYENNKEMRQTLEKLYAKERQRKGLPPESTTVQVGISENKIDLNGIKLKDIPVIKSITGREIHQQPDGSFAIQMPMINPFYYQDPRQNVKTDMMLIAQAIKASGYDSIEMNCNFPNSEKVAMERGRQAFAACIEAGFPVDKITINVNGKPMKADELFKEHPKTYQDIMSRASKISKDYEDIKAPKTSTAPVNTVVVKQEIAALRTKQQQEERAQTQPVDEQRHGVTPNNLEHHHHHH
- soluble on expression in E. coli: not soluble

Sequence: MGSDKIHHHHHHMNISTIVSNLKDLILEVRAPYDLEITGVSNHSSKVKKGDLFICRRGEKFDSHEIIPEVMEKGAVAVVVEREIDLDFPYIQVFDSRYFEAKVASLFFEDPWKDVLTFGVTGTNGKTTTTMMIYHMLTSLGERGSVLTTAVKRILGNSYYDDITTPDAITILSAMKENREGGGKFFALEVSSHALVQQRVEGVRFDVGIFTNISRDHLDFHGTFENYLKAKLHLFDLLKDDGVAVLNESLADAFNRKSRKITFGTSKNADYRLGNIEVSWEGTQFVLETPDGLLKVFTRAIGDFNAYNAAAAIAALHQLGYDPKDLASSLETFTGVEGRFEVVRGAKKIGLNVVVDFAHSPDALEKLLKNVRKISQGRVIVVFGAGGNSDRGKRPMMSEVASKLADVVILTTDDPRGEDPEQIMEDLIKGIDKRKPYLVLFDRREAIETALTIANRGDSVVIAGRGHERYQIIDEEKKVPFQDREVVEEIIRDKLKGRKYAQ
- soluble on expression in E. coli: not soluble

Sequence: MGSDKIHHHHHHMIVMDAETLKELIRDDFEVINANETVSKLFPMLEKLDRDKANAILVEEDGKIVGVVREKDLIRGSVLKNPHETKVKSLLVRTGKIDLNELDPYKVARRFVEDSTPFVIVQIDDKRVGVIYINDFLSALKDEFKDVKVREVMNPEVITVRRFDSAAKALSVMRTHGIDRVVVVDENNKVIGILTGKDVVDRVISPRKRARMGDSSGEKEKTLSIMVESIMSSPVVSVSRNDSVAEVIDLMVENRISSVVVTRDGLPDGIVIKKDILEYYLKKESRKEFNVQISTADITLDEFDREAILEDVEKLMRKFSDFLGESFLFIYIKRHKEHFRNLPLIHVRLKLASEKGNFMVSGESWGVEYAVHVALKKLEREILKEKELLEDKRMIKRFYEEVLEY
- soluble on expression in E. coli: not soluble

Sequence: MLRIEDLQLAAALAQAPSLSAAARALNVTPPALSMRLRKLEAGLGLALAVRSARRLSLTPEGERLAREAAALLAQLQALPESLRRDDSRLTGTLRVAAPFGYGRRHIAPVLARLAQRHPELRVQLDLRETPWPDHQDADAVVHIGAVRDSSWVTRRLADNERWLCASPQYLQDHGMPREPRDLLHHRCICIRENDEDASLWRFRRADAGAAGRKAAETVRIAPAYVSNDGNVARAWAEQGLGLVVRSQWDAEGAVARGALVRVMPQWQLDSAPVMLLVPGRKGRSARVKALLECFDEQAGHA
- soluble on expression in E. coli: not soluble

Sequence: MVKRTVATNGDASGAHRAKKMSKTHASHIINAQEDYKHMYLSVQPLDIFCWGTGSMCELGLGPLAKNKEVKRPRLNPFLPRDEAKIISFAVGGMHTLALDEESNVWSWGCNDVGALGRDTSNAKEQLKDMDADDSSDDEDGDLNELESTPAKIPRESFPPLAEGHKVVQLAATDNMSCALFSNGEVYAWGTFRCNEGILGFYQDKIKIQKTPWKVPTFSKYNIVQLAPGKDHILFLDEEGMVFAWGNGQQNQLGRKVMERFRLKTLDPRPFGLRHVKYIASGENHCFALTKDNKLVSWGLNQFGQCGVSEDVEDGALVTKPKRLALPDNVVIRSIAAGEHHSLILSQDGDLYSCGRLDMFEVGIPKDNLPEYTYKDVHGKARAVPLPTKLNNVPKFKSVAAGSHHSVAVAQNGIAYSWGFGETYAVGLGPFEDDTEVPTRIKNTATQDHNIILVGCGGQFSVSGGVKLSDEDAEKRADEMDD
- soluble on expression in E. coli: soluble
